Measured values as given in patent US20220242973A1 (Molecular Partners, published 2022).
Residue numbers refer to the chain shown, from its start. Values belong to the binder of their own block, whether it stands above or below them.

Columns and labels:
[1] = molecular target: T1, Human FAP expressed on the cell surface (WI38, CHO-FAP1.9, U87MG cells) (human, UniProt Q12884 1-760); assay: FACS on FAP-expressing WI38 cells, Penta-His AF647 detection
T1 construct: whole, on cells; Endogenous on WI38 and U87MG cells; from a human FAP cDNA (OriGene) in CHO-FAP1.9 cells; also called hFAP; FAP+ cells
T1 sequence (looked up): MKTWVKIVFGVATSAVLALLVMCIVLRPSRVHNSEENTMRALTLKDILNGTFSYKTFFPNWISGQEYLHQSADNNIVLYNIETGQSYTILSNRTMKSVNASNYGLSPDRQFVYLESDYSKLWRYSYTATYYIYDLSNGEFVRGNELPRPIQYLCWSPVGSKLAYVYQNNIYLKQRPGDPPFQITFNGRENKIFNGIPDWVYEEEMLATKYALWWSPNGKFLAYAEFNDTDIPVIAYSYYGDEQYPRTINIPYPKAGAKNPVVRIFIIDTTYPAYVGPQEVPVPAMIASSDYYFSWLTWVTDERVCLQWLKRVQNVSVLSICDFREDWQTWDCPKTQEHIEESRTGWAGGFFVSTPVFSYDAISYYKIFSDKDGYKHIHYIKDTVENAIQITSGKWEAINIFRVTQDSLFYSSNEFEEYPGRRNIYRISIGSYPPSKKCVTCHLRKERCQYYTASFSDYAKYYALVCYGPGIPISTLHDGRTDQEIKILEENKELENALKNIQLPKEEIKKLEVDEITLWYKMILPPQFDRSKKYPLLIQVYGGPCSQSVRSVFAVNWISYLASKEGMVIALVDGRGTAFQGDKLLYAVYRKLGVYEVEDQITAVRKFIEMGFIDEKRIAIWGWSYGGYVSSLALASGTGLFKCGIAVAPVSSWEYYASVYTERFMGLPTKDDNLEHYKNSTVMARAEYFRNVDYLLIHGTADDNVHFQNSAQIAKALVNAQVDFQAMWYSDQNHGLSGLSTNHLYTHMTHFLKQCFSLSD
Summary of the method: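 WI38 cells (20,000/well) incubated 30 min on ice with 2-fold dilutions of His-tagged ankyrin repeat proteins, washed, stained with Penta-His AF647 plus live/dead dye, fixed. Median fluorescence by flow cytometry; EC50 from non-linear regression of binding curves.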

[2] = molecular target: T1, Human FAP expressed on the cell surface …; assay: FACS on WI38 cells
Procedure: Using multi-well plates, 20,000 WI38 cells were added per well in 50 μl of PBS. 50 μl of appropriate dilutions (2× dilution steps) of ankyrin repeat protein was then added to the cells and incubated for 30 minutes on ice. After the ankyrin repeat protein-binding reaction, cells were washed twice with PBS. Direct immunofluorescent detection of the His-tagged ankyrin repeat proteins using Penta-His AF647 conjugate (QIAgen) and determination of live cells using LIVE/DEAD™ Fixable Green Dead Cell Stain Kit (ThermoFisher) were then performed together in one step. The Penta-His AF647 conjugate and the LIVE/DEAD™ Fixable Green dye were applied to the cells together in 1/200 (Penta-His) and 1/1000 (LID Fixable) final dilutions and incubated for 20-30 minutes on ice. After washing the cells with PBS, cells were re-suspended in 1× CellFix™ buffer (BD Biosciences) (10× stock was diluted 1/10 in water). […] Acquisition and FACS analysis, including the determination of median fluorescence intensity (MFI), were done within 5 days after staining using an AttuneNxT instrument. […]
Similarly, binding of the engineered ankyrin repeat proteins, i.e. DARPin® protein #34 and DARPin® protein #35, to FAP-expressing WI38 cells was also tested essentially as described above. Fold increase MFI was calculated by dividing the sample MFI by the MFI of the background control. […]

[3] = molecular target: T2, Recombinant human FAP (fibroblast activation protein) (human, UniProt Q12884 26-760); assay: cell-based or functional assay
T2 sequence (looked up): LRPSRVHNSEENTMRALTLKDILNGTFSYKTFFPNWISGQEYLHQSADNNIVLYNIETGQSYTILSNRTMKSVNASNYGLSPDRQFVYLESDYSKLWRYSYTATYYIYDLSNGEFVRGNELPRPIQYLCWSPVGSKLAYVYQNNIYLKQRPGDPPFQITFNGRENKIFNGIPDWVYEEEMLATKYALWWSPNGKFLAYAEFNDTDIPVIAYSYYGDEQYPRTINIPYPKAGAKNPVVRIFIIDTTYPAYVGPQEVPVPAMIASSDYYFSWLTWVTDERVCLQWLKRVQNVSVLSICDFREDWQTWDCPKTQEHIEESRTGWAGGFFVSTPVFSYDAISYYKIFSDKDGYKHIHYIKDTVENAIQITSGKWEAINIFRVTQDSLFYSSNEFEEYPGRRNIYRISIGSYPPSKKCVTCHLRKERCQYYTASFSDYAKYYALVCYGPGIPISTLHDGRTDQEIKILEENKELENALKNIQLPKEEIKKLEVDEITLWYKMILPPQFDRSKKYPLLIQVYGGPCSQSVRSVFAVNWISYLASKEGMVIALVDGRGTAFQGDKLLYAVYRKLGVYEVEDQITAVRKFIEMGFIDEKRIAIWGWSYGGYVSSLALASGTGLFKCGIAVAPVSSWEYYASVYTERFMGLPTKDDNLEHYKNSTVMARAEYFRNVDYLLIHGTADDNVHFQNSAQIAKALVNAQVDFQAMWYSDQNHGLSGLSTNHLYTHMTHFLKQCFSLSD

[4] = molecular target: T1, Human FAP expressed on the cell surface …; assay: FACS on CHO-FAP1.9 cells (human FAP transfectants)

EC50 [1]: 0.106 nM
B1: DARPin® protein #38 (designed binder)
chain: MRGSHHHHHHGSDLGKKLLEAARAGQDDEVRELLKAGADVNAKDEVGRTPLHLAAQIGHLEIVEVLLKAGADVNAKNRWGVTPLHVAAWVGHLEIVEVLLKAGADVNAKDQQGATPLHLAAIRGHLEIVEVLLKAGADVNAQDKSGKTPADLAADAGHEDIAEVLQKLN

EC50 [2]: 0.994 nM
FAP activity (%) [3]: 90%
EC50 [4]: 2.02 nM
B2: DARPin® protein #35 (designed binder)
chain: MRGSHHHHHHGSDLGEKLLVAALYGQDDEVRELLKAGADVNAKDQWGLTPLHKAALQGHLEIVEVLLKAGADVNAKDERGHTPLHWAARFGHLEIVEVLLKAGADVNAQDQKGYTPADLAALWGHEDIAEVLQKAA

EC50 [1]: 0.118 nM
B3: DARPin® protein #37 (designed binder)
chain: B2 chain with E32I, K35A, A135L, A136N

EC50 [2]: 0.736 nM
FAP activity (%) [3]: 93%
EC50 [4]: 1.19 nM
B4: DARPin® protein #34 (designed binder)
chain: MRGSHHHHHHGSDLGKKLLEAARAGQDDEVRELLKAGADVNAKDVLGWTPLHLAAFEGHLEIVEVLLKAGADVNAKDKKGWTPLQLAARTGHLEIVEVLLKAGADVNAKDHIGATPLHLAAWQGHPEIVEVLLKAGADVNAQDKSGKTPADLAADAGHEDIAEVLQKAA

EC50 [1]: 0.235 nM
B5: DARPin® protein #36 (designed binder)
chain: B4 chain with E32I, K35A, A168L, A169N

EC50 [1]: 0.203 nM
B6: DARPin® protein #39 (designed binder)
chain: MRGSHHHHHHGSDLGKKLLEAARAGQDDEVRELLKAGADVNAKDEWGKTPLHLAAIRGHLEIVEVLLKAGADVNAKDTHGITPLHLAAFVGHLEIVEVLLKAGADVNAKDYLGRTPLHIAAAKGHLEIVEVLLKAGADVNAQDKSGKTPADLAADAGHEDIVEVLQKLN
